From publication PMC3079584

Legend:
[1] = target: She2p;She3p (Saccharomyces cerevisiae;Saccharomyces cerevisiae) (UniProt P36068+P38272); test: EMSA; details: EMSA: 20 mM HEPES pH 7.8, 200 mM NaCl, 2 mM MgCl2, 2 mM DTT, 4% glycerol, 30 or 100 ug/ml yeast tRNA, 5 nM RNA, 20 C; filter binding: 20 mM HEPES pH 7.4-7.5 (7.)
[2] = target: Full-length His-She3p (Saccharomyces cerevisiae) (UniProt P38272); test: SPR; Biacore 3000, CM-5 chip, She3p amine-coupled, She2p flowed over, HNMD-buffer; steady state, Langmuir isotherm; duplicates
Chain of Full-length His-She3p (Saccharomyces cerevisiae) (P38272 whole entry): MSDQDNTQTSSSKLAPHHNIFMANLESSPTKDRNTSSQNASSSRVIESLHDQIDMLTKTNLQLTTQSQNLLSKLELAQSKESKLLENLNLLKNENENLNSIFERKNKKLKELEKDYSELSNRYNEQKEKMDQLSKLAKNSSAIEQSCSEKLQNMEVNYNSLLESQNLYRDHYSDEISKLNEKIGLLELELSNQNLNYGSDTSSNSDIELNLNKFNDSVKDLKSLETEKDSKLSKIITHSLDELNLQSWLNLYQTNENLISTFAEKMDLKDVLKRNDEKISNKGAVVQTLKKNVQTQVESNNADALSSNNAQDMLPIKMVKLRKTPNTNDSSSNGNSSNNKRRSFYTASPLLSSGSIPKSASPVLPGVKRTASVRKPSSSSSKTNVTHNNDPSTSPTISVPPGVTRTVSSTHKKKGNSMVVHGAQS

Chain of She2p;She3p (Saccharomyces cerevisiae;Saccharomyces cerevisiae) (P36068 whole entry, chain 1 of 2): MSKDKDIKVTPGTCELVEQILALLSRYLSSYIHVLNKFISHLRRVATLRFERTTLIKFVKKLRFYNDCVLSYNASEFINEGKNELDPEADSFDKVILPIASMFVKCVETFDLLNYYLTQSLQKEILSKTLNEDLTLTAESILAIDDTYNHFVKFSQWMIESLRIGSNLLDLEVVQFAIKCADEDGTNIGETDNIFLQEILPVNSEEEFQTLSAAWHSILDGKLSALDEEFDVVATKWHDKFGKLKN
Chain of She2p;She3p (Saccharomyces cerevisiae;Saccharomyces cerevisiae) (P38272 whole entry, chain 2 of 2): as the sequence (P38272 whole entry) above

| Substance | Kd [1] [µM] | Kd [2] [µM] |
| --- | --- | --- |
| HIV-1 TAR (length not stated) | > 1.5 | – |
| She2p (ΔC) (from UniProt P36068 1-240) (domain or fragment) | – | 2 |
